In paper PMC8794075 (Emerging Microbes & Infections, 2022):

Target: prefusion-stabilized SARS-CoV-2 S-trimer protein (wild type, Wuhan-Hu-1) (SARS-CoV-2, UniProt P0DTC2)
Assay: cell-based or functional assay

B1: MAb S3H3 (antibody, V domains shown)
VH: QVQLQQPGAELVRPGASVKLSCKASGYSFTRFWMNWVKQRPGQGLEWIGMIHPSDSETRLNQKFKDKATLTVDKSSTTAYMQLSSPTSEDSAVYYCARKDYDYDAWFAYWGQGTLVTVSA
VL: DIVLTQSPASLAVSLGQRATISCRASKSVSASVYSYMHWYQQKPGQPPKLLIYLASSLESGVPARFSGSGSGTDFTLNIHPVEEEDAATYYCHHSRELPPAFGGGTKLEIK
IC50 of neutralisation of WT S pseudovirus: 0.083 µg/mL
